In patent publication US20250230235A1 (NOVELTY NOBILITY, published 2025):

Target: human c-Kit (wild type) on the cell surface of LAD2 cells (human, UniProt P10721 26-976)
Experiment: cell-based or functional assay

Chain of human c-Kit (wild type) on the cell surface of LAD2 cells (P10721 26-976): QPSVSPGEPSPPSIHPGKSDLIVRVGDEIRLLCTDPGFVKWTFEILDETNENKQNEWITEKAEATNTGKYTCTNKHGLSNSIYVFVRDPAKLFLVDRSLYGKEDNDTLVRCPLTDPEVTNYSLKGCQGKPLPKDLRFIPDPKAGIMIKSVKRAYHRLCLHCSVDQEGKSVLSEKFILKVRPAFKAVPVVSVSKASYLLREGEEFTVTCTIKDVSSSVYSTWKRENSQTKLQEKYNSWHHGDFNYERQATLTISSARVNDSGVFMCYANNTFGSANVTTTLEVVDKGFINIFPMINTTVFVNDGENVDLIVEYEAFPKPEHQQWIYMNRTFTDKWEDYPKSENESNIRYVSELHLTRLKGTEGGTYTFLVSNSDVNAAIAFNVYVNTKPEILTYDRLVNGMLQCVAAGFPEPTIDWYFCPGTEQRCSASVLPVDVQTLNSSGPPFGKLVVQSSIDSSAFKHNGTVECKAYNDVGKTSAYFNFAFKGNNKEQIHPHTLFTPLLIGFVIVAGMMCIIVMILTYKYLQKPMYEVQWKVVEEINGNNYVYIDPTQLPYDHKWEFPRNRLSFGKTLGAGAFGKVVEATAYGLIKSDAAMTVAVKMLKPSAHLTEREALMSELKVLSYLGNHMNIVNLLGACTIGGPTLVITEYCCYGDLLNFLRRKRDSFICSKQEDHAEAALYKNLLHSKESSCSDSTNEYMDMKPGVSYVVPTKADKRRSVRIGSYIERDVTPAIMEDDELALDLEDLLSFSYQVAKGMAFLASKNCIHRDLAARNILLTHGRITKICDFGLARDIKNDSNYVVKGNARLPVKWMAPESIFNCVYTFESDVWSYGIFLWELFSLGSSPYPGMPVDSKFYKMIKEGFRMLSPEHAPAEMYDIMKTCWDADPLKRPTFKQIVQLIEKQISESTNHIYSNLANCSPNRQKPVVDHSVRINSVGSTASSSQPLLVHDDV

half-maximal inhibitory concentration (IC50) of SCF-mediated proliferation of LAD2 cells: 0.058 µg/mL
B1: 2G4 antibody (antibody, human IgG1, kappa, V domains shown)
VH: QVQLVESGGGVVQPGRSLRLSCAASGFTFSRYGMHWVRQAPGKGLEWVAVIWYDGTNKDYTDSVRGRFTISRDNSKNTLYLQMNSLRAEDTAVYYCAREDWAEAFDMWGQGTTVTVSS
VL: not shown
IC50 of degranulation (β-hexosaminidase release) increased by SCF and streptavidin in IgE-sensitized LAD2 cells: 0.00636 µg/mL
